Results from PMC7995010.

Biological target: ACE2‐Fc produced in glycoengineered ΔXT/FT Nicotiana benthamiana (human) (UniProt Q9BYF1)
Assay: SEC-MALS; isolated dimer fraction of ACE2‐Fc; native molecular mass by MALS

ACE2‐Fc produced in glycoengineered ΔXT/FT Nicotiana benthamiana (from UniProt Q9BYF1 18-615) (Fc fusion)
stoichiometry N: 2
